The record followed here is PMC6450946.

By stoichiometry N is commonly meant a count of units in the complex or per binding partner.

For assay [1], the target named is SRM-HtrM fusion protein (H. marismortui SRM and HtrM joined by a flexible linker) expressed in H. salinarum (Haloarcula marismortui). Nature of the assay: SDS-PAGE and Western blot; lysate of transformed H. salinarum (cells lysed in distilled water, sonicated); detection with Penta-His HRP conjugate. (A western blot detects proteins with antibodies after separation by electrophoresis.)

The target in assay [2] is HtrI, cognate transducer of SRI from Haloarcula marismortui, as part of the HmSRI-HtrI fusion protein (Haloarcula marismortui).
Assay [3] addresses HtrM, cognate transducer of SRM from Haloarcula marismortui, as the C-terminal part of the SRM-HtrM fusion protein (Haloarcula marismortui).

“SRM-HtrM fusion protein (H. marismortui SRM and HtrM joined by a flexible linker) expressed in H. salinarum” came in with a stoichiometry N in assay [1] of 2.

B1: Sensory rhodopsin I from Haloarcula marismortui, as part of the HmSRI-HtrI fusion protein (receptor)
chain: MDAVSVVYGITAAGFAVGVAIVGFLYASLEGSDERPILAALALIPGVAGISYVAMVFGIGTVTIGETTLVGFRYLDWVVTTPLLVGFIGYTAGASRRAIFGVMAADALMILAGVGAVVAAGTLKWALFGVSAVFHISLFAYLYLIFPRSVPDDPQRIGLFSLLKNHVGLLWIAYPLVWLAGPEGLGFATYVGVSITYAFLDLLAKVPYVYFFYARRQVFATKLLRDSGDTTVTPAD
In assay [2], B1 displayed a Photocycle kinetics (Tau value) of detergent-solubilized HmSRI-HtrI fusion, acidic (pH 6.1-6.5) of 2.38 s and a Photocycle kinetics (Tau value) of detergent-solubilized HmSRI-HtrI fusion, alkaline (pH 7.6-7.9) of 4.49 s.

B2: Sensory rhodopsin SRM from Haloarcula marismortui, as the N-terminal part of the SRM-HtrM fusion protein (receptor)
chain: MAQEIVWYGAGAGAFFVSAVVFVWFAATRGNIRSSFYYLPPIHTSVAGAAYVAMALIAGGQLGDTVSITTLRFADWIVSTPIITYYLARLAGVDTQTRRLAVAANVVMIGVGYGFVSMSGSLRWIAFAVSTVAFIGLLYLYIKTFARKINAATASVRSLFQSLRDLTVVTWSLYPVVYFLGPLGTGIIQAPDLNFLVAVLDTIAKVGFMSILLVRYNSVETFVDSWSVAPAK
Regarding B2, in assay [3], the Photocycle kinetics (Tau value) of detergent-solubilized HmSRM-HtrM fusion, acidic (pH 6.1-6.5) amounted to 4.05 s and the Photocycle kinetics (Tau value) of detergent-solubilized HmSRM-HtrM fusion, alkaline (pH 7.6-7.9) amounted to 5.62 s.
